Results published in paper PMC4321881.

Biological target: nascent chain-containing 60S ribosomal subunit (60S-RNC) (UniProt P35268)

Listerin, sequence (O94822 whole entry): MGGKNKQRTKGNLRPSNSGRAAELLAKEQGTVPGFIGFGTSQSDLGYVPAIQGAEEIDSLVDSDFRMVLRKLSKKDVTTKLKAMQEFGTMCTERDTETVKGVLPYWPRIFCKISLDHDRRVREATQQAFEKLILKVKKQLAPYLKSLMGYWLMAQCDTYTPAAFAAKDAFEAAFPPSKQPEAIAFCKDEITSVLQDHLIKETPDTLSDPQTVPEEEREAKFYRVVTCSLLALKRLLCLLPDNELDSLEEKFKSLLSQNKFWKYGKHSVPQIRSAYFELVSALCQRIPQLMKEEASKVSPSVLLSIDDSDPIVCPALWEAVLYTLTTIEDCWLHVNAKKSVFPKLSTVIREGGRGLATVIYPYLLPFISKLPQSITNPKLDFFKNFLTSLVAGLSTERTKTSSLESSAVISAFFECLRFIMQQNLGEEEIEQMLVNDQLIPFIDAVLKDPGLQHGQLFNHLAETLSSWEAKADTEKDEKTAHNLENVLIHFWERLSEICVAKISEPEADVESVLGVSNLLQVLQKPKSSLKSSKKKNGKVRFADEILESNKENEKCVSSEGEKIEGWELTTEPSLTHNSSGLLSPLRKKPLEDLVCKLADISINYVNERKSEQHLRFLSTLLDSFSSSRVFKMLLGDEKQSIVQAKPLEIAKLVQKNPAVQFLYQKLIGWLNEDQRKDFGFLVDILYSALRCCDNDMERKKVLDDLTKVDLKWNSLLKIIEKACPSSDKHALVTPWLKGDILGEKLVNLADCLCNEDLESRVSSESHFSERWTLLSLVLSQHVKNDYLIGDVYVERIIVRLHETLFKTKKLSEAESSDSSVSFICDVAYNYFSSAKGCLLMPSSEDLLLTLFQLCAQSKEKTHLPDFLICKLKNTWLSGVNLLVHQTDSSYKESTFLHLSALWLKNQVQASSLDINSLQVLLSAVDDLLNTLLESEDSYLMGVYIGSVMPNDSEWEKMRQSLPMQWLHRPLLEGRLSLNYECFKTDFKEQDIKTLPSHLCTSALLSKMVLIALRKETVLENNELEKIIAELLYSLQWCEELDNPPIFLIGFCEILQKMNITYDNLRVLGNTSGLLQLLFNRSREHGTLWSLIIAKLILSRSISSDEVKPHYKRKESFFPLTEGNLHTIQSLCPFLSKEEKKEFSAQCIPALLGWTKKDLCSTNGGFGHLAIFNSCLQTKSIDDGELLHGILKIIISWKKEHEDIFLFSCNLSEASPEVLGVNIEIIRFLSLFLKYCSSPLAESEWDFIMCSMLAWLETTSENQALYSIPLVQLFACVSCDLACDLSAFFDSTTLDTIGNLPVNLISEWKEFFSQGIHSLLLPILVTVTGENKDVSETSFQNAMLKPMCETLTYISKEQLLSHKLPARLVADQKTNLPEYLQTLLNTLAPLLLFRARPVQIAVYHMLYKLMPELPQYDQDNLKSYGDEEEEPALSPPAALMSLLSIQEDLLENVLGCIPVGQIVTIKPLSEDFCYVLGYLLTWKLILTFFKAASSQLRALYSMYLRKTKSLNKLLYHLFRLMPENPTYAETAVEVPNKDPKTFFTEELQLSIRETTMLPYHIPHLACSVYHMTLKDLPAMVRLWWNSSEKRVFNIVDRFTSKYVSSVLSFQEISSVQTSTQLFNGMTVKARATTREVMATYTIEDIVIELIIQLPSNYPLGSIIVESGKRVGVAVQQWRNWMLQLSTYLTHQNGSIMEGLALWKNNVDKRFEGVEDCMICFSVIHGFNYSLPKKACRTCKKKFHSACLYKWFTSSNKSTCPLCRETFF

## Listerin (from UniProt O94822 1-1766) (enzyme)
  poly-ubiquitination of the nascent chain-tRNA, purified NEMF titrated into reactions with 5 nM 80S-RNCs and 1.2 nM Listerin, relative to no NEMF: 3 to 5 fold
